Assay results from PMC3583667 (Molecular Biology of the Cell, 2013).
Read-outs that look alike come from different tables or passages of the source.

Columns and labels:
Test in all cases: co-IP
EGFP–Rab11-FIP1A [1] = target: T1, EGFP–Rab11-FIP1A (UniProt Q6WKZ4-1 1-612)
T1 sequence (looked up): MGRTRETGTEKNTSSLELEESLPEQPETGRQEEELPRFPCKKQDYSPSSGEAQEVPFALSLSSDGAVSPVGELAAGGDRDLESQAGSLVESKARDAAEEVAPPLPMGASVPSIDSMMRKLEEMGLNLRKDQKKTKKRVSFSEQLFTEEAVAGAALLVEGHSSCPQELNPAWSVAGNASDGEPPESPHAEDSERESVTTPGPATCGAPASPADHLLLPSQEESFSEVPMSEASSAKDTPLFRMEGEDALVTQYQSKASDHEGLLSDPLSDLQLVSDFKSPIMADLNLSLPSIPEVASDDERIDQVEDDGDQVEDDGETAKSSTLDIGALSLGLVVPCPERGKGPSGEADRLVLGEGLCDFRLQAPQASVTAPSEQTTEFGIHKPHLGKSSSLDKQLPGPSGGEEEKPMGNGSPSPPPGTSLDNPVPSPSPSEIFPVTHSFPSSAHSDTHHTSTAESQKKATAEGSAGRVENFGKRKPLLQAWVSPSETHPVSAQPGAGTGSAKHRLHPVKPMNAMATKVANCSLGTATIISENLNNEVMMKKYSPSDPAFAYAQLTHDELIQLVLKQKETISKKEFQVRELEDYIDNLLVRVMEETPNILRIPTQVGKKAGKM

EGFP–Rab11-FIP1B [2] = target: T2, EGFP–Rab11-FIP1B (UniProt Q6WKZ4-4 1-1283)
T2 sequence (looked up): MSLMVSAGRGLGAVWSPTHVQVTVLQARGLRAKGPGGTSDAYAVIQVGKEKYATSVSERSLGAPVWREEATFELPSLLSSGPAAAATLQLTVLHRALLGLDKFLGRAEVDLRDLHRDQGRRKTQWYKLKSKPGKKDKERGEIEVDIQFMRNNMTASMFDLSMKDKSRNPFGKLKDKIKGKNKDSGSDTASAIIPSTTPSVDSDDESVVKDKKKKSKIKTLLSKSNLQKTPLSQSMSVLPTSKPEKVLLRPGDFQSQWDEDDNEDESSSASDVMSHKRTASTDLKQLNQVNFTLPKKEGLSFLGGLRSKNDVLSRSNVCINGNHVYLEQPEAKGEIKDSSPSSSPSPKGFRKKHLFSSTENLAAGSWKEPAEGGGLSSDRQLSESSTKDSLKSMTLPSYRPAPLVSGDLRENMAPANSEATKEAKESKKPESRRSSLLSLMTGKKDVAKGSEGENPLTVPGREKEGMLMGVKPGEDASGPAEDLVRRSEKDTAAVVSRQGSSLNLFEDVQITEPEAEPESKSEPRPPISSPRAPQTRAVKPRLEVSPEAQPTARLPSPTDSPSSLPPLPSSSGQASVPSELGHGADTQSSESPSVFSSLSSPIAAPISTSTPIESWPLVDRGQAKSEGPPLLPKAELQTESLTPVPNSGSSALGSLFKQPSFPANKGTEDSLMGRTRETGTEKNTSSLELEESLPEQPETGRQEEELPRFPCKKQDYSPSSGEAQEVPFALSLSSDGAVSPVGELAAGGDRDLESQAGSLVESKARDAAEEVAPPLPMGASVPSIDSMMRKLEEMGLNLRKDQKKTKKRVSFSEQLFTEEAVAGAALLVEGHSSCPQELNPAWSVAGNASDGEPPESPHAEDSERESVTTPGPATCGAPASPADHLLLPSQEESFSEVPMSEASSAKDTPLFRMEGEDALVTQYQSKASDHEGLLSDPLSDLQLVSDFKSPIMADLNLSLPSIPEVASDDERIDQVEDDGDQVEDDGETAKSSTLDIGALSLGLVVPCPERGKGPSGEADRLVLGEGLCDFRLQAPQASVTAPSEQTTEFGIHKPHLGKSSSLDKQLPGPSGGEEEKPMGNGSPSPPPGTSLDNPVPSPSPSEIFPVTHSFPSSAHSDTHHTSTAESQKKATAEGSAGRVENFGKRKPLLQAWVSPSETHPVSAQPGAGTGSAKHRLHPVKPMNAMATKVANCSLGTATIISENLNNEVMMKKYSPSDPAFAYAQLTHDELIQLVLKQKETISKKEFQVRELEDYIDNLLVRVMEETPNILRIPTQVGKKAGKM

EGFP–Rab11-FIP1C [3] = target: T3, EGFP–Rab11-FIP1C (UniProt Q6WKZ4-3 1-649)
T3 sequence (looked up): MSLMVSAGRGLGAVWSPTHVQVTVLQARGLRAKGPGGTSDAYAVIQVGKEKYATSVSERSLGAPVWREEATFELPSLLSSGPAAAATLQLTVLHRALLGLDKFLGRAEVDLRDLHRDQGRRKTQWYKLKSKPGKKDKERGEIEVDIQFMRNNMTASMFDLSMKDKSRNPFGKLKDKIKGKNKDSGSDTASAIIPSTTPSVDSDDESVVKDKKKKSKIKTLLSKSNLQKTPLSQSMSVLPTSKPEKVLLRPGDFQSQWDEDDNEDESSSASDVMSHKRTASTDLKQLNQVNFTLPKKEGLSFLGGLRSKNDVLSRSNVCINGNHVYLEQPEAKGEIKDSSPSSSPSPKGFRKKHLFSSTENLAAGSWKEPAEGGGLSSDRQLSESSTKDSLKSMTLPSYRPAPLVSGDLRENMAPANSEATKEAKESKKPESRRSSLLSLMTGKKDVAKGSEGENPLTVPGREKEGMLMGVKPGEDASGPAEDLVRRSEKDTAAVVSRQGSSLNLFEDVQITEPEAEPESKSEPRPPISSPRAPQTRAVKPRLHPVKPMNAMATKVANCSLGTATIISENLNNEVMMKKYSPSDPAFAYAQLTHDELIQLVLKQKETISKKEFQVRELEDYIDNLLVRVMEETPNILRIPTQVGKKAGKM

EGFP–Rab11-FIP1A [4] = target: T1, EGFP–Rab11-FIP1A; remark: listed apart in the source
EGFP–Rab11-FIP1B [5] = target: T2, EGFP–Rab11-FIP1B; remark: listed apart in the source
EGFP–Rab11-FIP1C [6] = target: T3, EGFP–Rab11-FIP1C; remark: listed apart in the source

B1: mCherry–Rab11-FIP1A (natural protein, UniProt Q6WKZ4-1 1-612, looked up)
chain: T1 sequence (looked up)
percentage of total FIP1A recovered on the beads (EGFP–Rab11-FIP1A [1]): 15.2%
percentage of total FIP1A recovered on the beads (EGFP–Rab11-FIP1B [2]): 11.8%
percentage of total FIP1A recovered on the beads (EGFP–Rab11-FIP1C [3]): 15.2%
percentage of total FIP1A recovered on the beads (EGFP–Rab11-FIP1A [4]): 18.6%
percentage of total FIP1A recovered on the beads (EGFP–Rab11-FIP1B [5]): 13.4%
percentage of total FIP1A recovered on the beads (EGFP–Rab11-FIP1C [6]): 11.6%
